# Assay results taken from article PMC5100581.
# Biological target: His-tagged Gins51 wild type (Thermococcus kodakaraensis)
# Test: SPR
substance,measurement,value
GAN mutant F55A/L57A (enzyme),Kd,0.23 µM
